{"source": "patent US20250090876A1", "about": "(published 2025)", "binders": {"B1": {"name": "ESS0102 5A (antibody, V domains shown)", "VH": "EVQLLESGGGLVQPGGSLRLSCAASGFSFSSYEMNWVRQAPGKGPEWISYISSGGGTIYYADSVRGRFTISRDNSNNTLYLQMNSLRPDDTAIYYCARDRGRKWLQLLFDSWGQGTLVTVSS", "VL": "not shown"}}, "molecular_target": "antigen target", "test": "BLI", "data": [{"binder": "B1", "values": [{"measurement": "Kd", "value": 11.6, "unit": "nM"}]}]}
